From patent US20240150462A1 (UNIVERSITY HEALTH NETWORK, published 2024)
Residue numbers refer to the chain shown, from its start.

B1: 1A8 (antibody, V domains shown)
VH: EVQLVESGGDLVKPGESLKLSCAASGFSFSSYDMSWVRQTPDKRLEWVTTISSGGDYTYFPDILKGRFTISRDNAKHTLYLQLSSLKSEDTAMYYCARWDSNFPHWYFDVWGTGTTVTVSS
VL: DIVLTQSPASLAVSLGQRATISCRASESVDKSGISFLHWYQQKPRQPPKLLIYRASNLESGIPGRFSGSGSRTDFTLSINPVEPDDVATYYCQQSNKDPFTFGGGTKLEIKR
notes: Entries are printed with leader peptide and part of the mouse constant region; also called LILRB2 antibody 1A8
B2: 1G3 (antibody, V domains shown)
VH: EVQLVESGGDLVKPGGSLKLSCAASGFTFSSYDMSWVRQTPDKRLEWVATISSGGSYTFYPDSVKGRFTISRDNAKNTLSLQMSSLKSEDTAIYYCARWDSNYLRWFFDVWGTGTTVTVSS
VL: B1 VL with K31N, S32N, L37M, R45G, P47S, G64A, S78T, P84T, K97D
notes: Entries are printed with leader peptide and part of the mouse constant region; also called LILRB2 antibody 1G3
B3: 10F5 (antibody, V domains shown)
VH: B2 VH with G55A, F59Y, S80Y, N102K, F107Y
VL: B1 VL with K31N, S32N, L37M, R45G, P47S, Y53S, G64A, S78T, P84T, K97E
notes: Entries are printed with leader peptide and part of the mouse constant region; also called LILRB2 antibody 10F5
B4: 2F10 (antibody, V domains shown)
VH: EVQLQQSGPELVKPGASVKISCKASGYTFTDDYMNWVKQSHGKSLEWIGDINPTNGDTNYNQKFKGKATLTVDKSSSTAYMELRGLTSEDSAVYYCARGSSPFTYWGQGTLVTVSA
VL: DIQMTQTTSSLSASLGDRVTISCSASQGISNYLNWYQQKPDGTVKLLIYYTSSLYSGVPSRFSGSGSGTDYSLTISNLEPEDIATYYCQQYSKLPWTFGGGTKLEIKR
notes: Entries are printed with leader peptide and part of the mouse constant region; also called LILRB2 antibody 2F10
B5: 3B3 (antibody, V domains shown)
VH: QVQLQQPGAELVKPGASVKMSCKASDYTFTSYWITWVKKRPGQGLEWIGDIYPGSDTTNYNEKFKNKATLTVDTSSSTAHMQLSSLTSEDSAVYYCTRPLYQGISPWFAYWGQGTLVTVSA
VL: NIVMTQSPKSMSMSVGERVTLSCKASENVGTYVSWYQQKPEQSPKLLIYGASNRYTGVPDRFTGSGSATDFTLTISSVQAEDLADYHCGQSYSYPFTFGSGTKLEIKR
notes: Entries are printed with leader peptide and part of the mouse constant region; also called LILRB2 antibody 3B3
B6: 1C8 (antibody, V domains shown)
VH: EVKLVESGGGLVQPGGSLKLSCAASGFTFSDYYMYWVRQTPEKRLEWVAYISNGGGNTYYPDTVKGRFTISRDNAKNTLYLQMSRLKSEDTAMYYCARQLEDWYFDVWGTGTTVTVSS
VL: DIVMTQSHKFMSTSVGDRVSITCKASQDVSTAVAWSQQKPGQSPKLLVYWASARHTGVPDRFTGSGSGADYTLTISSVQAEDLALYYCQQHFSTPLTFGAGTKLELKR
notes: Entries are printed with leader peptide and part of the mouse constant region; also called LILRB2 antibody 1C8
B7: 2G9 (antibody, V domains shown)
VH: B6 VH with Q99N, L100R, E101D
VL: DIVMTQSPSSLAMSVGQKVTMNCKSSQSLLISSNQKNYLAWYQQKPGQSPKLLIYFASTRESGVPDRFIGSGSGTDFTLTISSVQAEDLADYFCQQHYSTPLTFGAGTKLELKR
notes: Entries are printed with leader peptide and part of the mouse constant region; also called LILRB2 antibody 2G9
B8: 4H5 (antibody, V domains shown)
VH: QIQLQQSGPELVKPGASVKISCKASGYTFTDYYINWVKQRPGQGLEWIGWIYPGGDNTKYNEKFKDKATLTVDTSSSTTYMQLSSLTSEDSAVYFCARFEDKYSSNYWFAYWGQGTLVTVSA
VL: DILLTQSPAILSVSPGERVSFSCRASQYIGTSIHWYQQRTNGSPRLLIKYASESISGIPSRFSGSGSGTDFTLSINSVESEDVADYYCQQSNRWPFTFGSGTKLEIKR
notes: Entries are printed with leader peptide and part of the mouse constant region; also called LILRB1 antibody 4H5
B9: 6A11 (antibody, V domains shown)
VH: B8 VH with G55S, D56G, D66G, T79A, Y103H
VL: B8 VL with V83I, R93S
notes: Entries are printed with leader peptide and part of the mouse constant region; also called LILRB1 antibody 6A11
B10: 4A11 (antibody, V domains shown)
VH: QVQLKQSGAELVRPGTSVKLSCKASGYTFTDYYINWVKQRPGQGLEWIARIYPGSGNTFYNEKFQDKATLTAEKSSSTAYMQLSSLTSEDSAVYFCANTPSYGSSHWYFDVWGTGTTVTVSS
VL: DIVMTQSHKFMSTSVGDRVSITCKASQDVNTAVAWYQQKPGQSPKLLIYWASTRHTGVPDRFTGSGSGTDFTLTISNVQSEDLADYFCQQYSTYPRTFGGGTKLEIKR
notes: Entries are printed with leader peptide and part of the mouse constant region; also called LILRB1 antibody 4A11
B11: 6A6 (antibody, V domains shown)
VH: QVQLQQSGPELVKPGASVKISCKASGYSFTSSYIHWVKQRPGQGLEWIGWIYPGSGNTKYNERFKGKATLTADTSSSTAYMHLSSLTSEDSAVYYCARNYGTSYGWYFDVWGTGTTVTVSS
VL: DIVMTQSQKFMSTTVGDRVSITCKASQNVGTAVAWYQQKPGQSPKLLIYSLSNRYTGVPDRFTGSGSGTDFTLTISNMQSEDLTDYFCQQYSSYPLTFGAGTKLELKR
notes: Entries are printed with leader peptide and part of the mouse constant region; also called LILRB1 antibody 6A6
B12: 4D5 (antibody, V domains shown)
VH: QVQLQQPGAELVRPGSSVKLSCKASGYTFTSYWMDWVKQRPGQGLEWIGNIYPSDSATHYNQKFKDKATLTVDKSSSTAYMHLSSLTSEDSAVYYCARGLLQYFDVWGTGTSVTVSS
VL: DIQMTQSPASLSVSVGETVTITCRASENIYSNLAWYQQKQGKSPQLLVYGATNLADGVPSRFSGSGSGTQYSLKINSLQSEDFGSYYCQHFWGIPWTFGGGTKLEIKR
notes: Entries are printed with leader peptide and part of the mouse constant region; also called LILRB1 antibody 4D5
B13: 5E11 (antibody, V domains shown)
VH: QVQLKESGPGLVAPSQSLSITCTVSGFSLSSYGVNWVRQPPGKGLEWLGVIWGDGSTNYHSALISRLSISKDNSKSQVFLKLNSLQTDDTATYYCAKPNWDYYAMEYWGQGTSVTVSS
VL: DIQMTQTTSSLSASLGDRVTITCRASQDISNFLNWYQQKPDGPVKLLIYYTSRLHSGVPSRFSGSGSGTDYSLTISNLEQEDIATYFCQQGNTLPWTFGGGTKLEIKR
notes: Entries are printed with leader peptide and part of the mouse constant region; also called LILRB1 antibody 5E11
B14: 5H12 (antibody, V domains shown)
VH: B13 VH
VL: B11 VL with D1G, T13S, T31A, A34I, L51A, P59L, T84A, L96W, A100G, L106I
notes: Entries are printed with leader peptide and part of the mouse constant region; also called LILRB1 antibody 5H12
B15: 1B10 (antibody, V domains shown)
VH: QVQLQQPGAELVKPGASVKLSCKASGYTFTNYWVQWVKQRPGQGLEWIGMIHPNSGSTNSNEKFKNKATLTVDRSSSTAYMQLSRLTSEDSAVYYCARGDDGYLYYFDYWGQGTTLTVSS
VL: QIVLTQSPALMSASPGEKVTMTCSASSSVSHMYWYQQKPRSSPKPWIYLTSNLASGVPARFSGSGSGTSYSLTISNMEAEDAATYYCQQWSSYAFTFGSGTKLEIKR
notes: The entries called 'variable region' are printed with the leader peptide and part of the mouse constant region; also called LILRB1 antibody 1B10
B16: 5E6 (antibody, V domains shown)
VH: QVQLQQSAAELVKPGASVKISCKVSGQSFTDHTIHWMKQRPEQGLEWIGYIFPRDGFTEYNERFKGKATLTADKSSSTAYMHLNSLTSEDSAVYFCAGNWDALDYWGPGTSVTVSS
VL: DIVLTQSPATLSVTPGDSVSLSCRASQSISKYLHWYQQKSHESPRLLIKYVSQSISGIPSRFSGSGSGTDFTLSINSVETEDFGIYFCQQSNSWPLTFGAGTKLELKR
notes: Entries are printed with leader peptide and part of the mouse constant region; also called LILRB1 antibody 5E6
B17: 4A10 (antibody, V domains shown)
VH: QVQLQQPGAELVKPGASVKLSCKASGYTFTNYWMYWVKQRPGQGLEWIGMIHPNSDSTNYNEKFKNKATLTVDRSSSTAYMQLSSLTSEDSAVYCCARGEDNYDYVMDYWGQGTSVTVSS
VL: DIVMTQAAPSVPVTPGESVSISCRSSKSLLHSYGNTHLYWFLQRPGQSPQLLIYRMSNLASGVPDRFSGSGSGTAFTLRISRVEAEDVGVYYCMQHLEYPLTFGAGTKLELKR
notes: Entries are printed with leader peptide and part of the mouse constant region; also called LILRB1 antibody 4A10
B18: 5B3 (antibody, V domains shown)
VH: QVQLKESGPGLVAPSQSLSITCTVSGFSLTSYGIDWVRQPPGKGLEWLGVIWGGGNTNYNSALMSRLTISKDNSKSQVFLKMNSLQTDDTAMYYCAKANWDSYAMDYWGQGTSVTVSS
VL: DIQMNQSPSSLSASLGDTITITCHASQNINFWLNWYQQKPGNIPKLLIYKASNLHTGVPSRFSGSGSGTGFTLTISSLQPEDIATYYCQQGQSYPLTFGGGTKVEIKR
notes: Entries are printed with leader peptide and part of the mouse constant region; also called LILRB1 antibody 5B3
B19: 4C2 (antibody, V domains shown)
VH: QVQLQQPGAALVKPGASVKLSCKASGYTFTSYWMHWVKQRPGQGLEWIGMIHPNSGSTNYNEKFRSEATLTVDKSSSTVYMQLSSLTSEDSAVYYCARSGDAYYDGLDYWGQGTSVTVSS
VL: B18 VL with S26R, F31V, N34S, P59S, L96W, V104L
notes: Entries are printed with leader peptide and part of the mouse constant region; also called LILRB1 antibody 4C2
B20: 3E12 (antibody, V domains shown)
VH: QVQLQQSGAELMKPGASVKLSCKATGYTFTGYWIEWVKQRPGHGLEWIGEILLGSGNTNYNENFKGKATLTADTSSNTAYMQLSSLTTEDSAIYYCASTHDGYWGQGTTLTVSS
VL: QFILTQSPAIMSASPGEKVTITCSASSSVSYMHWFQQKPGTSPKLWIYSTSNLASGVPARFSGSGSGTSYSLTISRMEAEDAATYYCQRRSSYPFTFGSGTKLEIKR
notes: Entries are printed with leader peptide and part of the mouse constant region; also called LILRB1 antibody 3E12
B21: 6B7 (antibody, V domains shown)
VH: QIQLVQSGPELKKPGETVKISCKASGYTFTNYGLSWVKQAPGKGLKWMGWINTYSGVTTYADDFKGRFAFSLETSASTAYLQINNLKSEDTATYFCARRSYDYSHYYAMDYWGQGTSVTVSS
VL: ETTVTQSPASLSVATGEKVTIRCITSTDIDDDINWYQQKPGEPPKFLISEGNTLRPGVPSRFSSSGYGTDFVFTIENTLSEDVADYYCLQSNNMPYTFGGGTKLEIKR
notes: Entries are printed with leader peptide and part of the mouse constant region; also called LILRB1 antibody 6B7

target: T1, Recombinant human Fc-tagged extracellular domain of LILRB2 (human, UniProt Q8N423 22-460); assay: SPR, Biacore X100; LILRB2-Fc amine-coupled to CM5 chip, antibody injected at 3.7-300 nM
T1 construct: extracellular domain; Bought from R&D Systems; also called LILRB2-Fc; not shown: Fc tag
Protocol: (§1) Dissociation constants (Kd) for mouse anti-human LILRB1 and LIRB2 antibodies were determined using a Biacore X100 surface plasmon resonance instrument (Cytivia). Recombinant human Fc-tagged extracellular domains of LILRB1 or LILRB2 (LILRB1-Fc or LILRB2-Fc; R&D Systems) were immobilized on a Biacore CM5 biosensor chip by amine coupling at a density of 40-50 relative units (RU). Purified mouse monoclonal antibodies were injected over the biosensor in a concentration series of 3.7, 11, 33, 100, and 300 nM in HBS-EP buffer (10 mM HEPS pH 7.4, […], 3 mM EDTA, 0.005% v/v Surfactant P20) at a flow rate of 50 μL/min. Regeneration of the chip was achieved by a 30 s injection of 10 mM glycine-HCl, pH 1.7. Affinity parameters were determined by fitting response data using the accompanying Biacore X100 analysis software.

T1 sequence (Q8N423 22-460): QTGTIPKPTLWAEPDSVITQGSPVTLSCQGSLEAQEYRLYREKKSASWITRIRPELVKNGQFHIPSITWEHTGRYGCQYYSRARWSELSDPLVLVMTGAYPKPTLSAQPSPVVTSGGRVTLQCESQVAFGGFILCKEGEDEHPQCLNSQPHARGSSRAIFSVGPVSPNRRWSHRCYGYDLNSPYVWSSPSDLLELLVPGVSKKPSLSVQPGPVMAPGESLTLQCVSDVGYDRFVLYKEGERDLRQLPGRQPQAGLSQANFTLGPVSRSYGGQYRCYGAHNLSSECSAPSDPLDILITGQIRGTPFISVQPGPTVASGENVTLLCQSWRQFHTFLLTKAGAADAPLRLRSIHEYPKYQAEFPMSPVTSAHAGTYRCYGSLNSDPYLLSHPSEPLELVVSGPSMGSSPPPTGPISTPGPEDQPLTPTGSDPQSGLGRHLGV

Point of comparison: B5, “-log(Kd)” value 8.01. Against it:
- B1 — lower, 7.79
- B2 — within 0.2 log units, 8.05
- B3 — within 0.2 log units, 7.95
- B4 — higher, 8.4
- B6 — lower, 7.64
- B7 — higher, 8.33

target: T2, Recombinant human Fc-tagged extracellular domain of LILRB1 (human, UniProt Q8NHL6 24-461); assay: SPR, Biacore X100; LILRB1-Fc amine-coupled to CM5 chip, antibody injected at 3.7-300 nM
T2 construct: extracellular domain; Bought from R&D Systems; also called LILRB1-Fc; not shown: Fc tag
Protocol: as §1

T2 sequence (Q8NHL6 24-461): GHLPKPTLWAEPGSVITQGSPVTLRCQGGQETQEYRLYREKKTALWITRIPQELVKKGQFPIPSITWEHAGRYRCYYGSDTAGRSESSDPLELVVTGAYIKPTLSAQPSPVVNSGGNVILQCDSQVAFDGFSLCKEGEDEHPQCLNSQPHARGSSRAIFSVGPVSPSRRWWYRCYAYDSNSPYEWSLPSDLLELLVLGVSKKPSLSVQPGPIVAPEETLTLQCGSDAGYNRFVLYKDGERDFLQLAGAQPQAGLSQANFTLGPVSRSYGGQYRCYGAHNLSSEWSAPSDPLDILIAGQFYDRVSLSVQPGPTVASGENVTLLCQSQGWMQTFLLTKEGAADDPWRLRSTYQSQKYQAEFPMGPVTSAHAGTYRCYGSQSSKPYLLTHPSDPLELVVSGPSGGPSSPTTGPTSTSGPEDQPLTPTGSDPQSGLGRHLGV

Point of comparison: B11, “-log(Kd)” value 7.98. Against it:
- B8 — higher, 12.6
- B9 — higher, 12.4
- B10 — lower, 7.76
- B12 — within 0.2 log units, 7.89
- B13 — lower, < 3
- B14 — higher, 8.26
- B15 — within 0.2 log units, 8.13
- B16 — higher, 8.2
- B17 — within 0.2 log units, 7.89
- B18 — higher, 8.76
- B19 — higher, 12.7
- B20 — higher, 11.6
- B21 — lower, 6.58
